Laboratory results published in article PMC6483157, “Structure of the human ClC-1 chloride channel” (PLoS Biology, 2019).

Molecular target: the molecule itself
Experiment: cryo-EM structure; single-particle cryo-EM of purified ClC-1 in amphipol PMAL-C8; 20 mM Tris pH 7.5, 100 mM NaCl, 0.2 mM TCEP, no nucleotides or antibodies; also 20 mM BisTris pH 6.2 with 0.3 mM NAD; C2 symmetry applied

B1: human ClC-1 chloride channel (natural protein, UniProt P35523 1-988, looked up)
chain: MEQSRSQQRGGEQSWWGSDPQYQYMPFEHCTSYGLPSENGGLQHRLRKDAGPRHNVHPTQIYGHHKEQFSDREQDIGMPKKTGSSSTVDSKDEDHYSKCQDCIHRLGQVVRRKLGEDGIFLVLLGLLMALVSWSMDYVSAKSLQAYKWSYAQMQPSLPLQFLVWVTFPLVLILFSALFCHLISPQAVGSGIPEMKTILRGVVLKEYLTMKAFVAKVVALTAGLGSGIPVGKEGPFVHIASICAAVLSKFMSVFCGVYEQPYYYSDILTVGCAVGVGCCFGTPLGGVLFSIEVTSTYFAVRNYWRGFFAATFSAFVFRVLAVWNKDAVTITALFRTNFRMDFPFDLKELPAFAAIGICCGLLGAVFVYLHRQVMLGVRKHKALSQFLAKHRLLYPGIVTFVIASFTFPPGMGQFMAGELMPREAISTLFDNNTWVKHAGDPESLGQSAVWIHPRVNVVIIIFLFFVMKFWMSIVATTMPIPCGGFMPVFVLGAAFGRLVGEIMAMLFPDGILFDDIIYKILPGGYAVIGAAALTGAVSHTVSTAVICFELTGQIAHILPMMVAVILANMVAQSLQPSLYDSIIQVKKLPYLPDLGWNQLSKYTIFVEDIMVRDVKFVSASYTYGELRTLLQTTTVKTLPLVDSKDSMILLGSVERSELQALLQRHLCPERRLRAAQEMARKLSELPYDGKARLAGEGLPGAPPGRPESFAFVDEDEDEDLSGKSELPPSLALHPSTTAPLSPEEPNGPLPGHKQQPEAPEPAGQRPSIFQSLLHCLLGRARPTKKKTTQDSTDLVDNMSPEEIEAWEQEQLSQPVCFDSCCIDQSPFQLVEQTTLHKTHTLFSLLGLHLAYVTSMGKLRGVLALEELQKAIEGHTKSGVQLRPPLASFRNTTSTRKSTGAPPSSAENWNLPEDRPGATGTGDVIAASPETPVPSPSPEPPLSLAPGKVEGELEELELVESPGLEEELADILQGPSLRSTDEEDEDELIL
notes: human ClC-1 chloride channel, full length, from yeast codon-optimized cDNA; followed by a TEV cleavage site, GFP and His10; released from the Ni-beads by TEV protease; The models cover only part of the chain: membrane domain residues 115-589 (loop 254-261 missing) and trimmed CBS domains; The N terminus and helix A are not resolved; source: yeast strain PAP1500 (pEMBLyex4), 15-L bioreactors; …
B1: binds.
